Earlier results on five substances are cited in publication PMC10531495.

Like-named read-outs stand apart in the source and are kept apart here.

Data set [1] deals with IAPP (Homo sapiens) (UniProt P10997).
Data set [2] shares this target. This is another data set of the same source.
For data set [3] the target is unchanged. This is another data set of the same source.
The target is the same in data set [4]. The source holds these as a separate data set.
For data set [5], the target named is Aβ monomer (Homo sapiens) (UniProt P05067).

IAPP (Homo sapiens), sequence (P10997 32-73): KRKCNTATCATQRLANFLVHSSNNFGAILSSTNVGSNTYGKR
leucine enkephalin, sequence (P01210 whole entry, looked up): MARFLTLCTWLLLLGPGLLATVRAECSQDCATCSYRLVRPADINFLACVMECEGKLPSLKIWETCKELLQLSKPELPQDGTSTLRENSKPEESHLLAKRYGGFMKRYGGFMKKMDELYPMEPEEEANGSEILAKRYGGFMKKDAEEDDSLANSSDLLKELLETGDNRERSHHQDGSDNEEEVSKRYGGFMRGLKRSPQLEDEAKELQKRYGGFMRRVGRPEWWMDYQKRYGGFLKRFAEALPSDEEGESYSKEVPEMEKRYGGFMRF

Aβ(35–40) 35-40 (from UniProt P05067): the Kd (as a rule, the equilibrium constant for the complex coming apart) with IAPP (Homo sapiens) [1] is 354 nM.

Turning to Aβ(1–40) 1-40 (from UniProt P05067), the Kd with IAPP (Homo sapiens) [2] was 48.5 nM.

On to Aβ(29–40) 29-40 (from UniProt P05067), for which the Kd with IAPP (Homo sapiens) [3] is 200 nM. Consider Aβ(25–35) 25-35 (from UniProt P05067), for which the Kd in the data set with IAPP (Homo sapiens) [4] was 282 nM. In the case of “leucine enkephalin (from UniProt P01210)”, in data set [5], the Kd is 60000 nM.
